Laboratory results published in doi:10.1101/212290 (bioRxiv, 2017).

Target: IscU-IscS complex (E. coli, UniProt P0A6B7;P0ACD4, biotin (site not stated))
Assay: BLI

Sequence of IscU-IscS complex (P0A6B7 whole entry, chain 1 of 2): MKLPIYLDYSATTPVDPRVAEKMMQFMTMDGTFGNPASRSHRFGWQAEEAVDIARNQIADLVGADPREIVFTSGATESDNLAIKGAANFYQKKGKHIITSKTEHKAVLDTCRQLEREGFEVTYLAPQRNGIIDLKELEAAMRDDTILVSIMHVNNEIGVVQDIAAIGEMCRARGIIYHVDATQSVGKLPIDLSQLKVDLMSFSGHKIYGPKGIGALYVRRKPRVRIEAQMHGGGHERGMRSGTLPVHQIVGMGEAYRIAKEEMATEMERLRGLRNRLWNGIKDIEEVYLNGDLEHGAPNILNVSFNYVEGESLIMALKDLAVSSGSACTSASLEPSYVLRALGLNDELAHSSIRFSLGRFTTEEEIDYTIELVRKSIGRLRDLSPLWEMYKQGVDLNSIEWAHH
Sequence of IscU-IscS complex (P0ACD4 2-128, chain 2 of 2): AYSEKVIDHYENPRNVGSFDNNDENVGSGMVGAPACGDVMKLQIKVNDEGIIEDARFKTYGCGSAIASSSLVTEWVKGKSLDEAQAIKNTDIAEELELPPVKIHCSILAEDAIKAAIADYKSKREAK

B1: IscX (natural protein)
chain: MGLKWTDSREIGEALYDAYPDLDPKTVRFTDMHQWICDLEDFDDDPQASNEKILEAILLVWLDEAE
modifications: most likely a mixed disulfide with beta-mercaptoethanol (+76 Da) on the majority of the protein
Q: Which Kd does the source give for B1 here?
A: 8 ± 2 µM
